According to patent US20040121326A1 (YEDA RESEARCH AND DEVELOPMENT, published 2004):
Ends that are not written are not given here.

What was measured:
[1] = molecular target: T1, ErbB-4 expressed on transfected cells (CHO cells; 32D derivatives D4 and D24) (UniProt Q15303 26-1308, limits assumed); assay: displacement of radiolabeled NRG-1β (5 ng/ml) from CHO cells expressing ErbB-4 by unlabeled ligand; reference unlabeled NRG-1
T1 construct: whole, on cells; also called surface-expressed ErbB-4
Source text: (§1) Each data point represents the mean and range (bars) of two determinations.
(§2) To quantify the interaction, a ligand displacement analysis on ErbB-4-expressing CHO cells was undertaken.

[2] = molecular target: T2, ErbB-2 expressed on transfected cells (32D derivative D2; CHO cells co-transfected with ErbB-4) (UniProt P04626 23-1255, limits assumed); assay: in vitro studies with engineered cell lines expressing all four ErbB proteins (FIGS. 3 to 5)
T2 construct: whole, on cells
Procedure: (§3) The indicated derivative lines of 32D cells were tested for cell proliferation using the [3-(4,5-dimethylthiazol-2-yl)-2,5-diphenyl]tetrazolium bromide (MTT) assay. […] The MTT assay was performed 24 hours later.
(§4) The indicated derivatives of 32D cells were incubated for various time intervals in the absence of IL-3. […] For control, cells were incubated with medium conditioned by IL-3-producing cells (open triangles), or with no factor (open circles). The extent of cell proliferation was determined daily by using the colorimetric MTT assay. The data presented are the mean±S.D. of 4 determinations.

[3] = molecular target: T3, ErbB-1 expressed on transfected cells (32D derivative D1; CHO cells co-transfected with ErbB-4) (UniProt P00533 25-1210, limits assumed); assay: as above
T3 construct: whole, on cells; also called Epidermal Growth Factor Receptor
Procedure: as §3, §4

[4] = molecular target: T4, ErbB-3 expressed on transfected cells (32D derivative D3; CHO cells co-transfected with ErbB-4) (UniProt P21860 20-1342, limits assumed); assay: as above
T4 construct: whole, on cells
Procedure: as §3, §4

[5] = molecular target: T1, ErbB-4 expressed on transfected cells …; assay: displacement of radiolabeled NRG-1β (5 ng/ml) from CHO cells expressing ErbB-4 by unlabeled ligand, 2 hours at 4 C
Source text: as §1, §2

T1 sequence (Q15303 26-1308 limits assumed): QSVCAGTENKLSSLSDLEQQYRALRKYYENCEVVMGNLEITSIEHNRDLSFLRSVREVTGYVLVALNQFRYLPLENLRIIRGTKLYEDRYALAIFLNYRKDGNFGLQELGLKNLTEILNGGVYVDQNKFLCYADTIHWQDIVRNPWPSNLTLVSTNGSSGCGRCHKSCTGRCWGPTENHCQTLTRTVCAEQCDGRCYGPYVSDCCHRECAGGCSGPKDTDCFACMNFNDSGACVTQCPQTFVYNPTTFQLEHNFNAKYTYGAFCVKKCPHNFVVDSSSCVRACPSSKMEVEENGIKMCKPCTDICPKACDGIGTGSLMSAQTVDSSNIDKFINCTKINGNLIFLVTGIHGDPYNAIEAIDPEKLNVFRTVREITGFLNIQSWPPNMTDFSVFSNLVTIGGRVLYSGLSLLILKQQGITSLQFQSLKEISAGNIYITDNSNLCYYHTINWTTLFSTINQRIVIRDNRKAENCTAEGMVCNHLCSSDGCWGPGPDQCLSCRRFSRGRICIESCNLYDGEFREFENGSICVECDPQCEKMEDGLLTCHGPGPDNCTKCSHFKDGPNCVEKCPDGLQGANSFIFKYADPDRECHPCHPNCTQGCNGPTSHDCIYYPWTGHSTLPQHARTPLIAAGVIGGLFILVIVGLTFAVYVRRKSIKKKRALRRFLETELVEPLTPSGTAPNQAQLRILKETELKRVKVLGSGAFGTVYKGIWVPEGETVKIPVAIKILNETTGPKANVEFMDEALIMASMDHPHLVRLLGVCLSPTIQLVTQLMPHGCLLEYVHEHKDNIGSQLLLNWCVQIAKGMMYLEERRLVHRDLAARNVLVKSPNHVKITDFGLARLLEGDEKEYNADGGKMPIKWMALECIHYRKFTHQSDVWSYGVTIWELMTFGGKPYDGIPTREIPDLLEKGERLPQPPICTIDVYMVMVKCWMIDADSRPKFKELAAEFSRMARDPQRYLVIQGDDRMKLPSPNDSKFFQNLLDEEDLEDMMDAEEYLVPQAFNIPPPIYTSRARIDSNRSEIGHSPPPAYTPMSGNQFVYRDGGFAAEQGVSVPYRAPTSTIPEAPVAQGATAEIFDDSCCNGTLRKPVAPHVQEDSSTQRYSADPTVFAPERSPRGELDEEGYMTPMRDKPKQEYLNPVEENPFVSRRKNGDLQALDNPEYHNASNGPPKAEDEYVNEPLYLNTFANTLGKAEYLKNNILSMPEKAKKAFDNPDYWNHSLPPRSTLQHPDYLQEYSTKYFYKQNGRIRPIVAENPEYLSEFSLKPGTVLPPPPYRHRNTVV
T4 sequence (P21860 20-1342 limits assumed): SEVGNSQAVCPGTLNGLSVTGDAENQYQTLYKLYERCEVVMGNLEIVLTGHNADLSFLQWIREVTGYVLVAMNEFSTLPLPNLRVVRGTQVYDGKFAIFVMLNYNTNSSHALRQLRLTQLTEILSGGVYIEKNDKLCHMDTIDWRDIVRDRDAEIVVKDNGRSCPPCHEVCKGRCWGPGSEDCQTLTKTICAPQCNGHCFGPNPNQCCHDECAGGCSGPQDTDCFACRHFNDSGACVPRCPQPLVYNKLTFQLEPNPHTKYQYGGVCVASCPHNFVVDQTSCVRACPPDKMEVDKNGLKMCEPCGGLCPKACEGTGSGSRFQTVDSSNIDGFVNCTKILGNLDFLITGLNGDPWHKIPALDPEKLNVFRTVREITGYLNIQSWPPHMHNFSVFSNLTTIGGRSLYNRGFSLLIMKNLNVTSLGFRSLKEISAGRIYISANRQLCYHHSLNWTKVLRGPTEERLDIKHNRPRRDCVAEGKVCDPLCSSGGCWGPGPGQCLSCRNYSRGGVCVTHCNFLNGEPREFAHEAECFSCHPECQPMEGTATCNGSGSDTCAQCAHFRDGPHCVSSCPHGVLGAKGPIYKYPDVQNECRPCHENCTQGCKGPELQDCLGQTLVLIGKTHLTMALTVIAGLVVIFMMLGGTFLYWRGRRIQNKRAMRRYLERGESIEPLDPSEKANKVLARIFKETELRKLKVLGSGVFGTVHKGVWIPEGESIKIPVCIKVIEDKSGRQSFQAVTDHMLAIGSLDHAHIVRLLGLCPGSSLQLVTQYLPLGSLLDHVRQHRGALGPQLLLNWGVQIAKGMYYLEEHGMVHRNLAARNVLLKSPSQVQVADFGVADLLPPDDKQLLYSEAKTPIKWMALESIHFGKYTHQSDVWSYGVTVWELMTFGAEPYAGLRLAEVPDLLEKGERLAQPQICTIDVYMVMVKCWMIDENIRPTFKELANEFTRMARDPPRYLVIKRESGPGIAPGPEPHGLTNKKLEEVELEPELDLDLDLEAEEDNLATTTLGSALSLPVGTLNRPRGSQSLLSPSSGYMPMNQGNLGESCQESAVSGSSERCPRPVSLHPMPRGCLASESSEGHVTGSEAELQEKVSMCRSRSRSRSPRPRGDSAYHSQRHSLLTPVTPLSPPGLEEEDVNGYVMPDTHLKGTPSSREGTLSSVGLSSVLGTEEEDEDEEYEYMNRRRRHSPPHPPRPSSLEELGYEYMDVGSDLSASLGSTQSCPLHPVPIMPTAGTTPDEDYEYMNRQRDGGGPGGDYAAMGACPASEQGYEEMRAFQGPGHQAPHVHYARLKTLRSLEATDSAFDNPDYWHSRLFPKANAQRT

fold lower binding affinity than NRG-1 [1]: ~8 fold
binding result [2]: no binding
binding result [3]: no binding
binding result [4]: no binding
Kd [5]: ~20 nM
B1: synthetic refolded mouse EGF-like domain of NRG-4 (residues 4 to 50, SEQ ID NO:2) (ligand)
peptide: DHEQPCGPRHRSFCLNGGICYVIPTIPSPFCRCIENYTGARCEEVFL
modifications: disulfide (positions not given here); also: three disulfide bonds, pairing not given here
notes: Chemically synthesised, folded and fully oxidized (three predicted disulfide bonds); also called Neuregulin-4; the novel synthetic peptide
